The source of these data is US20140296146A1, “Thermostable Inhibitors of Activation of the Blood Clotting System Through Contact with Foreign Surfaces” (Synapse B.V., priority 2011, published 2014).

Assay [1] is described as follows: TICA1 Ala-scan with intact disulfides, activity vs TICA1. Particulars: single amino acid substituted by alanine. The source says: Every single amino acid was substituted by alanine except for cysteine. […] See also FIG. 6.
For assay [2], the target named is T1, h-FXIIa (human, UniProt P00748 20-615).
T1 construct: also called factor XIIa
T1 sequence (looked up): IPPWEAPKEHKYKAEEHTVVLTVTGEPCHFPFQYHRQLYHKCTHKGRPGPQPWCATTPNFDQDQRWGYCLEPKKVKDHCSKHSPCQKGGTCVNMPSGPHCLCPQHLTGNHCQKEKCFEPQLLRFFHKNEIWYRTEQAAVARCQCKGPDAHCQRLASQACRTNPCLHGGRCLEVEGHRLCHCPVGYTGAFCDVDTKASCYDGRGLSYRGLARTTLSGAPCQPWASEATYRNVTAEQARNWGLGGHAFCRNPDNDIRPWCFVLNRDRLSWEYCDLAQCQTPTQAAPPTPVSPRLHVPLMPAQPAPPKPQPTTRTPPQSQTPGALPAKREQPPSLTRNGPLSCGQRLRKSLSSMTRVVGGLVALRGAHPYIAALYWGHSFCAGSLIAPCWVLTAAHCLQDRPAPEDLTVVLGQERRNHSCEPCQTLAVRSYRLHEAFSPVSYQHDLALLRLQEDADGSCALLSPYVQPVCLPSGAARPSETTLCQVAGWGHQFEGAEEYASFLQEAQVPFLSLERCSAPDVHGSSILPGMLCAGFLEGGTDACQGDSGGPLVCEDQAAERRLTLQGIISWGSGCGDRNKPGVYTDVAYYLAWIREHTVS
The experiment in a line: S2302 hydrolysis by h-FXIIa, fit of residual activity. Here is the method: (§1) Stock FXIIa was diluted 700× in BSA5. The inhibitor was diluted in BSA5 as indicated. Wells contained 70 μl diluted FXIIa (5 nM final), 70 μl inhibitor and 20 μl S2302 (475 or 462.5 μM final). The reaction was started after 5 min heating on the heating plate with S2302. Filters 405 nm and 490 nm reference. Found mΔA/min was multiplied by 2.14 to get the figure for a 1 cm path.
(§2) in which E=[FXIIa], Ki is the dissociation constant, I=[Inhibitor], kcat and Km are Michaelis constants and S=[S2302].

The target of assay [3] is T1, h-FXIIa. Nature of the assay: S2302 hydrolysis by h-FXIIa (5.01 nM); inhibitor 30 min 95° C. Here is the method:
(§3) Stock FXIIa was diluted 700× in BSA5. The inhibitor was diluted in BSA5 as indicated. Wells contained 70 μl diluted FXIIa (5 nM final), 70 μl inhibitor and 20 μl S2302 (475 or 462.5 μM final). The reaction was started after 5 min heating on the heating plate with S2302. Filters 405 nm and 490 nm reference. Found ΔmA/min was multiplied by 2.14 to get the figure for a 1 cm path.

Assay [4] deals with T1, h-FXIIa. Nature of the assay: S2302 hydrolysis by h-FXIIa (5.01 nM); inhibitor kept at -80° C. Here is the method: as §3
Assay [5] concerns the target T1, h-FXIIa. The experiment in a line: S2302 hydrolysis by h-FXIIa (5.01 nM); inhibitor at RT during 72 hrs. Here is the method: as §3
For assay [6], the target named is T1, h-FXIIa. The experiment in a line: S2302 hydrolysis by h-FXIIa (5.01 nM); inhibitor kept at -80° C. (reference). Here is the method: as §3
Assay [7] has as its target T1, h-FXIIa. The experiment in a line: S2302 hydrolysis by h-FXIIa (5.01 nM); inhibitor 30 min 95° C., against -80° C. Here is the method: as §3
In assay [8] the target is T1, h-FXIIa. Nature of the assay: S2302 hydrolysis by h-FXIIa (5.01 nM); inhibitor at RT during 72 hrs, against -80° C. Here is the method: as §3
For assay [9], the target named is T1, h-FXIIa. Nature of the assay: S2302 hydrolysis by h-FXIIa (5 nM), fit of residual activity; dissociation constant of the complex. Here is the method: as §1, §2
Assay [10] has as its target T2, h-FXIIa (human), P00748.
T2 chain: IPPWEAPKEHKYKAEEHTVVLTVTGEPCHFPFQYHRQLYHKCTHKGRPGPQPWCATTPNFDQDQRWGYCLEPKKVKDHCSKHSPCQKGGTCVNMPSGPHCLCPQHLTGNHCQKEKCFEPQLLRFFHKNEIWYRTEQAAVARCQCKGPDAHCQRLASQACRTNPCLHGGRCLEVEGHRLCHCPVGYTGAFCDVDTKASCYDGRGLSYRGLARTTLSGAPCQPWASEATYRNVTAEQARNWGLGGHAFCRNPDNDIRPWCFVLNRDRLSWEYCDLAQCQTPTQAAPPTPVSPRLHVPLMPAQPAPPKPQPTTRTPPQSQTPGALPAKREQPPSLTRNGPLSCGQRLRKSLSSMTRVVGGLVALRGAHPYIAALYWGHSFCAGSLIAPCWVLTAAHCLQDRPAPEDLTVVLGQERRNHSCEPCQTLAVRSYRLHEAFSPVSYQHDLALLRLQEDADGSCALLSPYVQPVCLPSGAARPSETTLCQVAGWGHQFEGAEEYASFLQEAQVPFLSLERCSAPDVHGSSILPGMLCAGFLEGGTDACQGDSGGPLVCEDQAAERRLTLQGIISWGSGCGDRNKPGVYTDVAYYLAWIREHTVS
Nature of the assay: cell-based or functional assay.

Assay [11] deals with T2, h-FXIIa (human), …. Nature of the assay: S2302 hydrolysis by h-FXIIa, fit of residual activity.
For assay [12], the target named is T2, h-FXIIa (human), …. Nature of the assay: S2302 hydrolysis by h-FXIIa (5.01 nM); inhibitor 30 min 95° C.
Assay [13] has as its target T2, h-FXIIa (human), …. Nature of the assay: S2302 hydrolysis by h-FXIIa (5.01 nM); inhibitor kept at -80° C.
Assay [14] deals with T2, h-FXIIa (human), …. The experiment in a line: S2302 hydrolysis by h-FXIIa (5.01 nM); inhibitor at RT during 72 hrs.
Assay [15] concerns the target T2, h-FXIIa (human), …. Nature of the assay: activity of TICA1 disulfide variants (FIG. 5), reference; assay not named.
The target in assay [16] is T2, h-FXIIa (human), …. The experiment in a line: S2302 hydrolysis by h-FXIIa (5.01 nM); inhibitor kept at -80° C. (reference).
Assay [17] concerns the target T2, h-FXIIa (human), …. The experiment in a line: S2302 hydrolysis by h-FXIIa (5.01 nM); inhibitor 30 min 95° C., against -80° C.
Assay [18] addresses T2, h-FXIIa (human), …. The experiment in a line: FXIIa activity, total FXIIa 9.33 nM, 306 nM TICA1 added after 60 minutes at 95° C.
For assay [19], the target named is T2, h-FXIIa (human), …. The experiment in a line: S2302 hydrolysis by h-FXIIa (5.01 nM); inhibitor at RT during 72 hrs, against -80° C.
Assay [20] addresses T2, h-FXIIa (human), …. The experiment in a line: S2302 hydrolysis by h-FXIIa (5 nM), fit of residual activity; dissociation constant of the complex.
For assay [21], the target named is T2, h-FXIIa (human), …. The experiment in a line: residual inhibitor activity after 60 minutes at 95° C., calculated from free FXIIa (total 9.33 nM).
The target in assay [22] is T1, h-FXIIa. Nature of the assay: S2302 hydrolysis by F.XIIa; before heating.
A further assay has as its target h-FXIIa (human) (UniProt P00748). Nature of the assay: activity of TICA1 disulfide variants against TICA1 with 3 disulfides (FIG. 5); assay not named.
Assay [23] addresses T1, h-FXIIa. The assay is described as above.

Values joined by “and” are separate entries in the source; they are usually repeats but may differ in a detail not shown here. Equal entries are not always repeated. Bridges are numbered along the chain shown (N, C = ends). Where no end group is shown, it is not given here.

On to “RVCPAILMKCKKDSDCLAECVCLEHGYCG [TICA1 Ala-scan analogue]”, for which the “Activity vs TICA1” value in assay [1] worked out at 0.009%.
Regarding “AVCPRILMKCKKDSDCLAECVCLEHGYCG [TICA1 Ala-scan analogue]”, the “Activity vs TICA1” value in assay [1] is 7.5%.
What is called Ki is the equilibrium dissociation constant of an inhibitor or competing ligand from its target. As to “squash trypsin inhibitor (STI), the serpin from Cucurbita Maxima seeds”, the Ki stood at 0.251 µM with h-FXIIa [2]; 0.264 µM in the assay with h-FXIIa [3]; 0.251 µM with h-FXIIa [4]; 0.267 µM in the assay with h-FXIIa [5]; 0.251 µM with h-FXIIa [9]. Besides, the Res. Act. (%) in the assay with h-FXIIa [6] came to 100%; with h-FXIIa [7], 105%; with h-FXIIa [8], 106%.
With “RVCARILMKCKKDSDCLAECVCLEHGYCG [TICA1 Ala-scan analogue]”, the “Activity vs TICA1” value in assay [1] is recorded as 9.0%.
Molecule RVCPRILMKCKKDSDCLAECVCLEHGYCG (modifications not checked) [TICA 1] had an Activity of FXIIa (mA/min) in assay [10] of 33.5 mA/min. Moreover, the inhibitory constant (Ki) stood at 0.0255 µM in assay [11]; 0.024 µM in [12]; 0.026 µM in assay [13]; 0.026 µM in assay [14]; 0.0255 µM in assay [20]. In addition, the activity (%) in assay [15] worked out at 100%. The Res. Act. (%) worked out at 100% in assay [16], 94% in [17] and 102% in [19]. In [18], this molecule returned a Free FXIIa of 3.93 nM. In addition, in assay [21], the Residual activity (%) is 81.7%.
Regarding AAARVCPRILMKCKKDSDCLAECVCLEHGYCG (modifications not checked) [AAA-TICA1], the Ki in [20] is 0.104 µM.

B1: TICA 3 (peptide)
peptide: HEERVCPRILMKCKKDSDCLAECVCLEHGYCG
notes: Synthetic congener; also called HEE-TICA1
B1: the inhibition constant Ki with h-FXIIa [22] is 10.1 µg/mL and 3.09 µM; in the assay with h-FXIIa [2], 3.09 µM; with h-FXIIa [3], 3.18 µM; with h-FXIIa [4] it was 3.09 µM; with h-FXIIa [5], 3.13 µM; with h-FXIIa [9], 3.09 µM. In addition, the “Res. Act. (%)” value with h-FXIIa [6] worked out at 100%; with h-FXIIa [7], 103%; with h-FXIIa [8] it was 101%.

B2: TICA 5 (peptide)
peptide: HEERVCPKILMECKKDSDCLAECICLEHGYCG
notes: Synthetic congener; also called HEE-TICA4
With B2, the inhibition constant Ki is 556 µg/mL and 171 µM with h-FXIIa [22]; 171 µM in the assay with h-FXIIa [2]; 179 µM in the assay with h-FXIIa [3]; 171 µM with h-FXIIa [4]; 165 µM with h-FXIIa [5]; 171 µM with h-FXIIa [9]. The “Res. Act. (%)” value worked out at 100% with h-FXIIa [6], 105% with h-FXIIa [7] and 96% with h-FXIIa [8].
In the case of RVCPRILMKAKKDSDCLAECVALEHGYCG (disulfide 16-28, 3-20) [TICA1 with 2 disulfide bonds (C3-C20, C16-C28)], in the assay with h-FXIIa (human), the activity (%) stood at 6.8%.
On to RVCGIGPRPRLPWPRILMKCKKDSDCLAECVCLEHGYCG (modifications not checked) [PCTI], for which the Ki in [20] was found to be 469 µM.
Take RVCPRILMKCKKDSDCLAECVCLEHGYCGAAA (modifications not checked) [TICA1-AAA]: the Ki in assay [20] is 0.377 µM.
For the molecule RVCPRILMKAKKDSDALAECVALEHGYAG (disulfide 3-20) [TICA1 with 1 disulfide bond (C3-C20)], in the assay with h-FXIIa [23], the “activity (%)” value turned out to be 0.003%.
Same read-out and setting: in the case of RVAPRILMKCKKDSDALAEAVCLEHGYAG (disulfide 10-22) [TICA1 with 1 disulfide bond (C10-C22)] it was 0.003%.
On to RVCPKILMECKKDSDCLAECICLEHGYCG (disulfide (positions not given here), Synthetic congener) [TICA 4], for which the Ki is 4.62 µg/mL and 1.42 µM in the assay with h-FXIIa [22]; 1.42 µM in the assay with h-FXIIa [2]; 1.34 µM with h-FXIIa [3]; 1.42 µM with h-FXIIa [4]; 1.4 µM with h-FXIIa [5]; 1.42 µM with h-FXIIa [9]. The “Res. Act. (%)” value with h-FXIIa [6] turned out to be 100%; with h-FXIIa [7] it was 94%; with h-FXIIa [8], 98%.
For RVAPRILMKAKKDSDCLAEAVALEHGYCG (disulfide 16-28) [TICA1 with 1 disulfide bond (C16-C28)], the “activity (%)” value in the assay with h-FXIIa [23] was 0.006%.
Take RVCPRILMECKKDSDCLAECVCLEHGYCG (disulfide (positions not given here), Synthetic, folded peptide) [TICA 2]: the Ki in the assay with h-FXIIa [22] was 0.355 µg/mL and 109 nM; with h-FXIIa [2] it was 0.109 µM; in the assay with h-FXIIa [3] it was 0.108 µM; with h-FXIIa [4], 0.109 µM; in the assay with h-FXIIa [5], 0.114 µM; in the assay with h-FXIIa [9], 0.109 µM. For the same molecule, the “Res. Act. (%)” value with h-FXIIa [6] came out at 100%; with h-FXIIa [7] it was 99%; in the assay with h-FXIIa [8], 105%.
For the molecule RVCPRILMKCKKDSDALAECVCLEHGYAG (disulfide 10-22, 3-20) [TICA1 with 2 disulfide bonds (C3-C20, C10-C22)], the “activity (%)” value with h-FXIIa [23] came to 0.2%.
On the same count and under the same terms, for RVAPRILMKCKKDSDCLAEAVCLEHGYCG (disulfide 10-22, 16-28) [TICA1 with 2 disulfide bonds (C10-C22, C16-C28)] the value was 0.3%.
